Laboratory results published in US20260234245A1 (ELTHERA, published 2026).

Experiments:
[1] = target: T1, recombinant hexahistidine-tagged human CHL1 (human, UniProt O00533 25-1082, limits assumed); assay: direct ELISA on plate-coated human CHL1-His, HRP goat anti-mouse detection
T1 construct: Hexahistidine-tagged; also called plate-coated human CHL1; close homolog of L1 (CHL1)
T1 sequence (looked up): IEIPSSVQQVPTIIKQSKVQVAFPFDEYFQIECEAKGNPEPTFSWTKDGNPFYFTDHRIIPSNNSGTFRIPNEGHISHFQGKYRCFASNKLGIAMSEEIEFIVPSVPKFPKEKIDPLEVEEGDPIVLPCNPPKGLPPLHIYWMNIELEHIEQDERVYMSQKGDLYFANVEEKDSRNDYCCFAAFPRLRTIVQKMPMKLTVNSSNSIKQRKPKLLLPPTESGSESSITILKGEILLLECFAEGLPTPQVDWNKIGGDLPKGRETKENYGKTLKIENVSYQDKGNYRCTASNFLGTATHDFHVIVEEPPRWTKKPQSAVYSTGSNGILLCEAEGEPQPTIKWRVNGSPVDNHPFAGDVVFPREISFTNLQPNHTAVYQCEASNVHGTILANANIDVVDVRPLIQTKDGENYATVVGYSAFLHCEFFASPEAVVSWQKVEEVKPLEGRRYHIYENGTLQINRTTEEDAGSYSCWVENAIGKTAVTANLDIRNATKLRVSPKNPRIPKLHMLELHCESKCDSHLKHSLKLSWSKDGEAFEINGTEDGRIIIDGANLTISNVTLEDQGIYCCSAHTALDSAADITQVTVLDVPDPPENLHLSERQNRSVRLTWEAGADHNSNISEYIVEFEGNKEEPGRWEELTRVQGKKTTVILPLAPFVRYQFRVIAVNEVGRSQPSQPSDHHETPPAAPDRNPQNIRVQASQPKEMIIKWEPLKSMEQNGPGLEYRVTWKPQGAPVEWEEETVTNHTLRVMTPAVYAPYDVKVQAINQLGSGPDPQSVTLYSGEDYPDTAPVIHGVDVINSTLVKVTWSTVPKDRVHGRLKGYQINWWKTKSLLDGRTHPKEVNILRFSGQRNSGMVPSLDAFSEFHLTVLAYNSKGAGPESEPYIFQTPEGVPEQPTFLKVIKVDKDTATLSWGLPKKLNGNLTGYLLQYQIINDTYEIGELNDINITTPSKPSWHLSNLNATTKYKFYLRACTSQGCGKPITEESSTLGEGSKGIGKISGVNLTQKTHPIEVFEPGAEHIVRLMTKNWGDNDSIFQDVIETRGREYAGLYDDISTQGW
Protocol: (§1) Recombinant human L1CAM-human Fc and human NrCAM-human Fc fusion proteins, as well as recombinant hexahistidine-tagged versions of human CHL1 and Neurofascin, respectively, were added to ELISA plates at a concentration of 1 μg/mL in 50 mM carbonate buffer pH 9.6 (100 μL per well). Plates were incubated overnight at 4° C., washed 5 times with PBS/0.05% Tween, and blocked by the addition of 200 μL per well PBS/0.05% Tween/1% Bovine serum albumin (BSA). […] As positive controls the same dilution series were prepared for commercial mouse antibodies directed against L1CAM (clone UJ127.11, NovusBio), human NrCAM (clone 308000, Creative Diagnostics), human CHL1 (clone 6E6E4, Sino Biological) and human Neurofascin (clone 727030, R&D systems). Plates were washed 5 times with PBS/0.05% Tween, and 100 μL per well of the antibody dilution series were added to the plates. After an incubation for 1 hour at room temperature, plates were washed again and 100 μL per well of a horse-radish peroxidase conjugated polyclonal goat anti-mouse antibody (diluted 1:1000 in PBS/0.05% Tween/1% BSA) was added. […] After an incubation of 8 minutes at room temperature, reactions were stopped by the addition of 50 μL per well 0.16 M H₂SO₄, and absorption at 450 nm was determined in a microplate reader.

[2] = target: T2, recombinant hexahistidine-tagged human Neurofascin (human, UniProt O94856 25-1217, limits assumed); assay: direct ELISA on plate-coated human Neurofascin-His, HRP goat anti-mouse detection
T2 construct: Hexahistidine-tagged; also called plate-coated human Neurofascin
T2 sequence (looked up): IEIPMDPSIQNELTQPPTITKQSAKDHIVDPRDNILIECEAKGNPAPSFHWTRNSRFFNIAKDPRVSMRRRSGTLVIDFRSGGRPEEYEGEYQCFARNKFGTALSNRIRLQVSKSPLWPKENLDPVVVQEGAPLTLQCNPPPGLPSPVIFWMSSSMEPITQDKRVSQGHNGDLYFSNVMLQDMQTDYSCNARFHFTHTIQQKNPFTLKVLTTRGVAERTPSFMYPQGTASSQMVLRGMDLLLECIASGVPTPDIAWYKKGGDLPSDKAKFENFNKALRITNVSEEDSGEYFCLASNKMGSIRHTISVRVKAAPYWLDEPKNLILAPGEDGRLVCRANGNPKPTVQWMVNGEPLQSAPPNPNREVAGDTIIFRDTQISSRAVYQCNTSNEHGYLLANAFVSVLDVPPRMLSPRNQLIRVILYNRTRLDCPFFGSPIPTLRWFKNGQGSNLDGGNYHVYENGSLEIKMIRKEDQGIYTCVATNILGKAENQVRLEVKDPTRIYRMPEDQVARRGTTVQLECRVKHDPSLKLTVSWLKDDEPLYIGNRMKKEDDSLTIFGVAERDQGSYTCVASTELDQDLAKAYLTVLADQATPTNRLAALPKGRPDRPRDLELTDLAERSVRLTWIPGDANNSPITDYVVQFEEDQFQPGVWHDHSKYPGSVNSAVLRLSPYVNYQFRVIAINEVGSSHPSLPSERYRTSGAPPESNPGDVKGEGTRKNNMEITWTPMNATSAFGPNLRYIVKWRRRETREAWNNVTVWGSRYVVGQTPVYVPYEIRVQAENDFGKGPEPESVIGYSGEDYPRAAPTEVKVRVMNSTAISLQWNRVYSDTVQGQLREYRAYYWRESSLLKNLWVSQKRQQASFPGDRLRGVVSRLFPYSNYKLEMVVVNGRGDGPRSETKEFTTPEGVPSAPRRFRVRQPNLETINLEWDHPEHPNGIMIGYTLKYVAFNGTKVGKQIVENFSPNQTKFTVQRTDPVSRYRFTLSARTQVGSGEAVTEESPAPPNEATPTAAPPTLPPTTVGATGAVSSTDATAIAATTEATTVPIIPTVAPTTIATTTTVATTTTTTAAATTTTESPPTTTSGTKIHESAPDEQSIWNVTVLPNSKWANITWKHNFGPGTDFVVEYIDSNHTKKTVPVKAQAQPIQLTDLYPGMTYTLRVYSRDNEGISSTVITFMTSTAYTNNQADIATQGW
Protocol: as §1

[3] = target: T3, recombinant human NrCAM-human Fc fusion protein (human, UniProt Q92823 25-1167, limits assumed); assay: direct ELISA on plate-coated human NrCAM (panel titled 'human NrCAM-His'; the text calls it an NrCAM-human Fc fusion), HRP goat anti-mouse detection
T3 construct: also called plate-coated human NrCAM; Neuronal cell adhesion molecule (NrCAM)
T3 sequence (Q92823 25-1167 limits assumed): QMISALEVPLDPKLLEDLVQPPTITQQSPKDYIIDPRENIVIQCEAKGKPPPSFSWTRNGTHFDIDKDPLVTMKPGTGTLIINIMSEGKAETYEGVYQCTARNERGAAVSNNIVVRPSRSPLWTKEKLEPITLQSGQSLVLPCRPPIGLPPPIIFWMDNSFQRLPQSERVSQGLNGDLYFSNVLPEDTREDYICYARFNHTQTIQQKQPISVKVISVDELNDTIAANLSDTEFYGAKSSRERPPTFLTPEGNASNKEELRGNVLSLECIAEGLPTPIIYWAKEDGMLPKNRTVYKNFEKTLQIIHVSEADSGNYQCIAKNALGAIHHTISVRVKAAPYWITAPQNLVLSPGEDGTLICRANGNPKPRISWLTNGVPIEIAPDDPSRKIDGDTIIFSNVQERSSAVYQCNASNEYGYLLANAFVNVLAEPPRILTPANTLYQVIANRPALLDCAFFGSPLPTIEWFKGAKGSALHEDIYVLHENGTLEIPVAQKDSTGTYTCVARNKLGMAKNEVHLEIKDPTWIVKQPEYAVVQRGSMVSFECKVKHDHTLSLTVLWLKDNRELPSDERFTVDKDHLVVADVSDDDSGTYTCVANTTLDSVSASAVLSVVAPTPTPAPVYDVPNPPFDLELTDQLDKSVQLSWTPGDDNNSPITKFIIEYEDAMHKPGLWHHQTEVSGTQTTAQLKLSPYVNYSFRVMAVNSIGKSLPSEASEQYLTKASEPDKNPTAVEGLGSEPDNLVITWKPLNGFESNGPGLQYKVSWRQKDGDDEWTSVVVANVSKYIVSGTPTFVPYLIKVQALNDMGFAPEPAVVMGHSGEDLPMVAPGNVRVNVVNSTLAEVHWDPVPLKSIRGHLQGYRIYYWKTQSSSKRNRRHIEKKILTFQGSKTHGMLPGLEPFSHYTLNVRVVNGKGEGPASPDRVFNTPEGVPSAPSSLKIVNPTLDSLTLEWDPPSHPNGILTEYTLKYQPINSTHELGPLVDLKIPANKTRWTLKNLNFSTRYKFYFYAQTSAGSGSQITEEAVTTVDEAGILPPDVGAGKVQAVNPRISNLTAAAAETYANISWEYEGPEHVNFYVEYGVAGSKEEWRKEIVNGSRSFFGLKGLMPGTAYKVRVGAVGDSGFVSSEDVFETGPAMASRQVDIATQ
Protocol: as §1

Measured: binding result

B1: OV549.20 mouse IgG2a (antibody, V domains shown)
VH: DVQLQESGPGLVKPSQSLSLTCTVTGYSITSDYAWNWIRQFPGNKVEWMGYISYSGSFSYHPSLKSRISITRDTSKNQFFLQLSSVTTEDTATYYCARSFSYGYGFAYWGQGTLVTVSS
VL: DIVMTQSHKFMSTSVGDRVNITCKASQDVSSAVAWYQQKPGQSPKLLIYSASYRYTGVPDHFTGSGSGTDFTFTISSVQAEDLAVYYCQQHYSTPWTFGGGTKLEIKR
modifications: N-glycosylation motif Asn-Ile-Thr in the variable region; glycosylated and non-glycosylated light chain forms present
notes: Recombinant mouse IgG2a expressed in CHO K1 cells; also called OV549.20 (murine); mAb OV549.20
no binding (tested: 1 µg/mL): all assays above
